Laboratory results reported in article PMC8185224 (EBioMedicine, 2021).

Target: the molecule itself
Assay: SEC; Superdex75 column in 20 mM sodium phosphate buffer, pH 8.0; last step of the purification

Row | Protein | stoichiometry N
1 | recombinant human D-dopachrome tautomerase (natural protein, UniProt P30046 1-118, looked up, D-dopachrome tautomerase (DDT), human; The protein was active as a tautomerase, so the initiator methionine is probably removed (surmise); also called rhDDT; DDT; source: E. coli BL21(DE3), pET20b(+), purified (Q sepharose, phenyl sepharose, Superdex75 SEC)) MPFLELDTNLPANRVPAGLEKRLCAAAASILGKPADRVNVTVRPGLAMALSGSTEPCAQLSISSIGVVGTAEDNRSHSAHFFEFLTKELALGQDRILIRFFPLESWQIGKIGTVMTFL | 3
2 | recombinant murine D-dopachrome tautomerase (natural protein, UniProt O35215 1-118, looked up, D-dopachrome tautomerase (DDT), murine; also called rmDDT; murine DDT; source: E. coli BL21(DE3), pET20b(+), purified (Q sepharose, phenyl sepharose, Superdex75 SEC)) MPFVELETNLPASRIPAGLENRLCAATATILDKPEDRVSVTIRPGMTLLMNKSTEPCAHLLVSSIGVVGTAEQNRTHSASFFKFLTEELSLDQDRIVIRFFPLEAWQIGKKGTVMTFL | 3
